From PMC12474298 (Viruses, 2025)
Where no end group is shown, it is not given here.

Target: mouse importin α2 lacking the importin-β binding domain (mouse IMPα2ΔIBB) (mouse, UniProt P52293 70-529)
Assay: fluorescence polarisation
Conditions: both partners purified

B1: HaHV1 UL36h NLS peptide (residues 1491-1500), FITC/Ahx-labelled (peptide)
peptide: ETKKRRRILE
modifications: not fully specified (N-terminus); also: FITC/Ahx-labelled, position not given here
notes: also called HaHV1 NLS; HaHV1-NLS
  Kd: 609 nM
